# Reference: the nanobody polyreactivity screen of Harvey et al. (2022)
# Assay: yeast display, Sf9 membrane polyspecificity reagent, FACS + sequencing; frameworks hold sequencing errors
# Method in brief: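 Nanobodies came from a synthetic yeast display library in Saccharomyces cerevisiae BJ5465, induced with galactose for 36–48 hours and stained for 1 hour at 4 °C with 10% biotinylated, detergent-solubilized Sf9 membrane reagent. Cells were enriched on streptavidin microbeads and then FACS-sorted, with low and high (top ~1%) gates set on anti-HA fluorescence for expression and streptavidin fluorescence for reagent binding. Each polyreactivity label reflects the gate a clone came from. Genes were amplified by colony PCR, sequenced by MiSeq 2 × 250 and filtered by CDR length.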
row,Sequence,polyreactivity (PSR sort gate)
1,QVQLVESGGGLVQAGGSLRLSCAASGRIFVTNTMGWYRQAPGKERELVAAIDNSAGSTYYADSVKGRFTISRDNAKNTVYLQMNSLIPEDTAVYYCAADYPPYYAYGYWGQGTQVTVSS,low polyreactivity
2,QVQLVESGGGLVQAGGSLRLSCAASGSNIYVYAMGWYRQAPGKERELVAAISSSSDSTYADSVKGRFTISRDNAKNTVYLQMNSLKPEDTAVYYCNKKNAVYFAYDYWGQGTQVTVSS,low polyreactivity
3,QVQLVESGGGLVQAGGSLRLSCAASGFIFTVNAMGWYRQAPGKERELVAAITQSGGNTSYADSVKGRFTISRDNAKNTVYLQMNSLTPEDTAVYYCNASSDTSRYGVSTYYYWGQGTQVTVSS,low polyreactivity
4,QVQLVESVGGLVQAGGSLRLSCAASGNTFHTNAMGWYRQAPGKERELVAAITGGGSTYYADSVKGRFTISRDNAKNTVYLQMNSLKPEDTAVYYFNTDVPYGLDVSDTIDYYYWGQGTQVTVSS,low polyreactivity
5,QVQLVESGPGLVQAGVSLRLSCAASGSIFAYYAMGWYRQAPGKERELVAAISSRGGNTYYADSVKGRFTISRHYAKNSVYLQMNSLKPEDTAVYYCAADYQYSYGEYDYWGQGTQVTVSS,high polyreactivity
6,QVQLVESGGGLVQAGGSLRLSCAASGSIFEYNAMGWYRQAPGKERELVAAITDTGSITYYADSVKGRFTISRDNAKNTVYLQMNSLKPEDTAVYYCAARAYPATAVDRRQPGNYWGQGSQVTVSS,low polyreactivity
7,QVQLVESGGGLVQAGGSLRLSCAASGFNFASNAMGWYRQAPGKERELVAAITKSGGRTYYADSVKGRFTISRDNAMNTVYLQMNSLKPEDTAVYYCAAKVRVVHRPYDHWGQGTQVTVSS,high polyreactivity
8,QVQLVESGGGLVQAGGSLRLSCAASGSIFYYYAMGWYRQAPGKERELVAAISDDAITYYADSVKGRFTISRDNAKNTVYLQMNSLKPEDTAVYYCAAELYYPVGFDYWGQGTQVTVSS,high polyreactivity
9,QVQLVESVGGLVQAGGSLRLSCAASGSIFRRYTMGWYRQAPGKERELFAAISRVGNTNYAHSVKGRFTISRDNAKNTVYLQMNSLKPEATAVYYCAARAIGYRYTPGLNYWGQGTQVTVSS,high polyreactivity
10,QVQLVESGGGLVQARGSLRLSCAASGSIFYPYAMGWYRQAPGKERELVAGISRSGASTYYADSVKGRFTISRDNAKNTVYLQMNSLKPEDTAVYYCAADDWTRNYWGQGTQVTVSS,low polyreactivity
11,QVQLVESGGGLVQAGGSLRLSCAASGRTQSRYTMGWYRQAPGKERELVAAISTSGSTYYADSVKGRFTISRDNAKNTVYLQMNSLKPEDTAVYYCNAVRRYLQYATGYDYWGQGTQVTVSS,high polyreactivity
12,QFQIVDSLEGLVQEAGTLRLSSAASGSIFYRYAKGGYRQAPRKERELVATITSSGGRTYYADSVKGRFTISRDNAKNTVYLQMNSLKPEDTAVNYCKPRDWGRTRGGGYPWLYRYDYWGQGTQVTVSS,low polyreactivity
13,QVQLVESGGGLVQAGGSLRLSCAASGSTFWGNAMGWYRQAPGKERELVAAISWIGGGTYYADSVKGRFTISRDNAKNTVYLQMNSLKPEDTAVYYCAAKIFIRVHYYSYRMYYWGQGTQVTVSS,low polyreactivity
14,QDQLVESGGGLVQAGGSLRLSCAASGRIFAGYAMGWYRQAPGKERELVATISSGGSTYYADSVKGRFTISRDNAKNTVYLQMHSLKPEDTAVYYCAAEYGTRQYSSYYKLFNYWGQGTQVTVSS,low polyreactivity
15,QVQLVESGGGLFQAGGSLRISCAASGRTFSYYAMGWYRQAPVKERELVAAISWSGVITYYADSVKGRFTISRDNAKNTVYLQMNSMKPEDTAVYYCASRPYWSEFDYDYWGQGTQVTLSS,low polyreactivity
16,QVQLVESGGGLVQAGGSLRLSCAASGGTLRGNAMGWYRQAPGKERELVAAISGSAGRTYYADSVKGRFTISRDNAKNTVYLQMTSLKPVDTAVYYCAASRRVVKMDYWGQGTQVTVSS,high polyreactivity
17,QVQLVESGGGLVQAGGILRLSCAAAGFIFYRYAMGWYREAPGKEREFVAAISRSGGSTYYADSVKGRFTISRDNAKNTVYLQMNSLKPEDTAVYYCAAGRVTISYFQDRLTTYDYWGQGTQVTVSS,high polyreactivity
18,QVQLVESGGGLVQAGGSLRLSCAASGRIFVPNNMGWYRQAPGKERDLVAAISSGGSTYADSVKGRFTISRDNAKNTFYLQLNSLKPEDTAVYYCAVGKYGTQFTQWVRKYDYWGQGTQVTVSS,low polyreactivity
19,HVQLVESGGGLVQAGGSLRLSCAASRRTFGWYAMGWYRQAPGKERELVAAISLSGGSTYYADSVKGRFTISRDNAKNTVYLQRNSLKPDVTAVYDCAAADYWLGYDYWGQGSQVTVSS,low polyreactivity
20,QVQLVESGGCLVQAGGSLRLTCAASGRIFRGNVMGWYRQAPGKERELVAAISGRGGNTYYADSVKGRFTISRDNAKNTVYLQMNSLKPEDTAVYYCAATRKDDYQYGYWGQGTQVTVSS,high polyreactivity
21,QVQLVESGGGLVQAGGSLRLSCAASGSTFGYYAMRWYRQAPGKERELVAAIRSSGGGTYYADSVKGRFTISRDNAKNTVYLQMNSLKPEDTAVYYCATDAPILVNAEYDEWLEYDYWGQGTQVTVSS,low polyreactivity

row,Sequence,polyreactivity (PSR sort gate)
1,QVQLVESGGGLVQAGGSLRLSCAASGSILYYYTMGWYRQAPGKERELVAAINTSGGITYYADSVKGRFTISRDNAKNTVYLQMNSLKPEDTAVYYCAAEGPEIKYYYWGQGTQVTVSL,low polyreactivity
2,QVQLVESGGGLVQAGGSLRLSCAASGSTFYNAMGWYRQAPGKERELVAAITRSGGSTYYADSVKGRFTISRDNAKNTVYLQMNSLKPEDTAVYYCAAKSIIRPSAPRRDDMDYWGQGTQVTVSS,low polyreactivity
3,QVQLVESGGGLVQAGGSLRLSCAASGIIFRRYAMGWYRQAPGKERQLVARISFRGGSTYYADSVKGRFTISRDNAKNTVYLQMNSLKPEDTAVYYCNRDPRYSKEVDGDYWGQGTQVTVSS,high polyreactivity
4,QVQLVESLGGLVQAGASLRLSCAASARTFVIYSMGSYREAPGKERELVAAITWNGETTYYADSVKGRFTISRDNAKNTVYLQMNSLKPEDTAVYYCAAETRSEYHYWGQGTQVTVSS,high polyreactivity
5,QVQLVESGGGLVQAGGSLRLSCAASGRIFGRYAMGWYRQAPGKERELVAAISSGSSTNYADSLKGRFTISRDNAKNTVYLQMNSLKPEDTAVYYCAVVLYRHWWYDYWGQGTQVTVSS,high polyreactivity
6,QVQLVESGGGLVQAGGSLRLSCAASGFIFDTNAMGLYRQAPGKERELVATISTSGGSTSYADSVKGRFTISRDNAKNTVYLQMNSLTPEDTAVYYCAARWYFPDRVKYDYWGQGTQVTVSS,low polyreactivity
7,HVQLVESGGGLVQAGGSLRLSCAASGRIFKYYAMGWYRQAPGKERELLAAITYSGGSTNYADSVKGRFTISRDNAKNTVYLQMKSLKPEDTAVYYCNAYSYRNFLSHYNYWGQGTQVTVSS,high polyreactivity
8,QVHLVESGGGLVQEGGSLRLSCAASGFTFDSYAMGWYRQAPGKERELVASISSSGSTNYADSVKGRFTISRDNAKNTVYLQMNSLKPEDTGVYYCAAESRYPFIYEYWGQGTQVTVSS,low polyreactivity
9,QVQLVESGGGLVQAGGSLLLSCGASGFIFYAYAMGWYRQAPVKDRELVAVMSSSGGSTYYADSVTGRFSISRAHAKTTVYLEWNSLKPDDTGGYYCAAETGTGETRYYRYWDYYYWGQGTQVTVSS,high polyreactivity
10,QVQLVESGGGLVQAGGSLRLSCAASGSIFPRYAMGWYRQAPGKERELVAAITGSGSSTYYADSVKGRFTISRDNAKNTVYLQMNSLKPEDTAVYYCADRFIWGYWGVGYYYWGQGTQVTVSS,low polyreactivity
11,QVQLVESGGGLVQAGGSLRLAVLPPVLPSTLNDMGWYRQAPGKERELVAAITRGGSTNYADSVKGRFTISRDNAKNTVYLQMNSQKPEDTAVYYCAAPYAGWRDGGDNWGQGTQVTVSS,low polyreactivity
12,QVQLEESGGGLVQAGGSLRLSCAASGITFYYYAMGWYRRAPGKERELVAANSSGGSKSYADSVKGRFTISRDNAKNNVYLQMNSLKPDDSAVYYCAADLPYLWYPFYYWGQGTQVTVSS,high polyreactivity
13,QVQLVESGGGLVQAGGSLRLICAASGASFFDKDMGWYRQAPGKERELVAAAITARGGSTYYADSVKGRFTISRDNAKNTVYLQMNSLKPEDTAVYYCAAGRPGELDYWGQGTQVTVSS,low polyreactivity
14,QVQLVESGGGLVQAGGSLRLSCAASGRTFVYYAMGWYRQAPGKERELVASISSVGTTKYADSVQGRFTISRANAKNTVYLQMNSLKPEDTAVYYCAAVPLSRNIFDSWGQGTQVTVSS,low polyreactivity
15,QVQLVESGGGLVQAGGSLRLSCAASGFIFWGNTMVWYRQAPGKERELVAAITYSGGSTYYADSVKGRFTISRDNAKNTVYLQMNSLKPEDTAVYYCNKVFVYRGDYWGQGSQVTVSS,high polyreactivity
16,QVQLVESGGGLVQAGGSLRISCAASGLTSVTYAMGWYRQAPGKERELVAAITSRAGSTYYADSVKGRFTISRDNAKNTVYLQMNSLKPEDTAVYYCAKDIIRKVYAGYVGRYDYWGQGTQVTVSS,low polyreactivity
17,QVQLVESGGGLVQAGGSLRLSCAASGFTFGLNVMGWYRQAPGKERELVAAISQSGGSTYYADSVKGRFTISRDNAKNTVYLQMNSLKPEDTAVYYCAVDYYPNPSYTVYDDEYWGQGTQVTVSS,low polyreactivity
18,QVQLVESGGGLVQAGGSLRLSCAASGSIFYVYAMGWYRQAPGKERELVAAITNYADSVKGRFTISRDNAKNTVYLQMNSLKPEDTAVYYCAADWWRVEMDYWGQGTEVTVSS,low polyreactivity
19,QVQLVESGGGLVQAGGSLRLSCAASGFTFRRNTMGWYRQEPGKERELVAAITQRGGSTYYADSVKGRFTISRDNAKNTVYLQMNSLKPEDTAVYYCAVDRHSYIYKYDYWGQGTQVTVSS,high polyreactivity
20,QVQLVESGGGLVQAGGSLRLSCAASGRTFDAYTMGWYRQAPGKEMELVAAITFSGGNTYYADSVKGRFIISRDNAKNTVYLQMNSLKPEDTAVYYCAARHWIYSTDYSTYYEYDSWGQGTQVTVSS,low polyreactivity
